Data: patent US20240109958

B1: wild-type UCHL5 (UCHL5^WT), C-terminal 6-His tag (protein)
chain: MTGNAGEWCLMESDPGVFTELIKGFGCRGAQVEEIWSLEPENFEKLKPVHGLIFLFKWQPGEEPAGSVVQDSRLDTIFFAKQVINNACATQAIVSVLLNCTHQDVHLGETLSEFKEFSQSFDAAMKGLALSNSDVIRQVHNSFARQQMFEFDTKTSAKEEDAFHFVSYVPVNGRLYELDGLREGPIDLGACNQDDWISAVRPVIEKRIQKYSEGEIRFNLMAIVSDRKMIYEQKIAELQRQLAEEEPMDTDQGNSMLSAIQSEVAKNQMLIEEEVQKLKRYKIENIRRKHNYLPFIMELLKTLAEHQQLIPLVEKAKEKQNAKKAQETKHHHHHH
B2: wild-type UCHL1 (UCHL1^WT), C-terminal 6-His tag (protein)
chain: MQLKPMEINPEMLNKVLSRLGVAGQWRFVDVLGLEEESLGSVPAPACALLLLFPLTAQHENFRKKQIEELKGQEVSPKVYFMKQTIGNSCGTIGLIHAVANNQDKLGFEDGSVLKQFLSETEKMSPEDRAKCFEKNEAIQAAHDAVAQEGQCRVDDKVNFHFILFNNVDGHLYELDGRMPFPVNHGASSEDTLLKDAAKVCREFTEREQGEVRFSAVALCHHHHHH

Target: Ub vinyl sulfone HA-tagged probe (Ub-VS-HA; Cat #U-212, Boston Biochem), P0CG48
Sequence (P0CG48 whole entry, looked up): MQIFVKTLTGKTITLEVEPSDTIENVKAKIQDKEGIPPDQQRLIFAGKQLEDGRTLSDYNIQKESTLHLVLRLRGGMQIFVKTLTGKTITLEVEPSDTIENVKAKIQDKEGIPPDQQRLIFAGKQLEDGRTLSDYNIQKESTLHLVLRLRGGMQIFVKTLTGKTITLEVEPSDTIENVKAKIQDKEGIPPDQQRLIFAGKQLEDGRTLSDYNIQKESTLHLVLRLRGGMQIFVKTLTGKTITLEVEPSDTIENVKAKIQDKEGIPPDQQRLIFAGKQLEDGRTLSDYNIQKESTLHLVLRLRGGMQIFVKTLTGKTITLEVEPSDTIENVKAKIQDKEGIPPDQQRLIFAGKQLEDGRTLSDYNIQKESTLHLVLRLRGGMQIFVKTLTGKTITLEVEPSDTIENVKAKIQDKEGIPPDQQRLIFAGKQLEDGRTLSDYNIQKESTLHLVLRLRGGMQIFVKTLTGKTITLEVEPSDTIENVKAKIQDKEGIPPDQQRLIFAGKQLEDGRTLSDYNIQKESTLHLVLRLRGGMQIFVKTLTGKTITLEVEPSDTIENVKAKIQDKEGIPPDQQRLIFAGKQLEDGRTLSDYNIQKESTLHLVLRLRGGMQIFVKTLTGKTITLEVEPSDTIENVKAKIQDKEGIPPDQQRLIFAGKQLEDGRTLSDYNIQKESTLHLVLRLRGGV

Protein	modification by the suicide probe Ub-VS (immunoblot)
B1	UCHL5^WT was only partially modified at 30 minutes
B2	UCHL1^WT readily reacted with Ub-VS, nearing completion after 30 minutes
